From the DeepSol protein solubility set

Test: soluble on expression in E. coli; label from the status in PepcDB or PDB records

Sequence	soluble on expression in E. coli
MVPELKQISRVEAMRLGPGWSHSCHAMLYAANPGQLFGRIPMRFSVLMQMRFDGLLGFPGGFVDRRFWSLEDGLNRVLGLGLGCLRLTEADYLSSHLTEGPHRVVAHLYARQLTLEQLHAVEISAVHSRDHGLEVLGLVRVPLYTQKDRVGGFPNFLSNAFVSTAKCQLLFALKVLNMMPEEKLVEALAAATEKQKKALEKLLPASSAHHHHHH	soluble
MAHHHHHHMAVGKNKRTSKGKKGGKKKVTDVFTKKEWYDLKAPKMFLVRNFGKTLVTKTIGKKLATDSLKGRIYEVNLADLNNDEDQAHKKIKLSCDHIINRDCYTDFCGLSITRDKLCSLIRKGYTLIEGHTDVKTLDNYHLRMFCIAFTKKRQNQTKSTCYAQTSQIKKIRKKMVDIMTAEASKVLLKDLVKKFIPESIGKEIEKQCKKIYPLQNVLIRKVKILKRPKLDISKLMELHTDPKEESGKNVNALPESKEATNILTAELKH	not soluble
MAGDPNSMKFMSGKFCVLCGKQNVDLIDSLCVDCYVKSKKLIETPKRVTGKYCKICGAQWIRGKWIRTSATSLASVVEDIIARELGSKMRIDKNVDEFAFDIKSIWKDPSGNSFATIEFRGKVRGKSFSQEAVISLEMERELCDSCFRKKTRYYEAIVQLRSKGKIGVDDKKRAFFESFFSTSIVDNISDVIEGREGVDYYFMSKSVARKLVSMISSIVDVEVNESYQNEKMKNGKREAKLVISLRILEHHHHHH	not soluble
MSQFTHYPPVSDKQLGFFIDSSRCSGCKACQVACKDKNNLEVGRRFRRVYEVKGGSFIPTGQGGVSNNVFAYTLSISCNHCADPVCTKNCPTTAMHKRPGDGIVRVDTDKCVGCGYCAWSCPYGAPQLNEQTGQMSKCDMCVDLLAKGEPPVCVATCPLEAIKFGPIDELRAKYGSVCDVNGLPDSSITKPNLVVKAHQGAEKEGKRHA	not soluble
MGSDKIHHHHHHMSSPSLGTEQVFPQQALLDPVLLRAFVAVADSGSFTRAAAATHLTQSTVSQQLKRLEQQLGCELLSRKGRYAMPTADGERLLGYARQILALMAEAGMTPAQPPLLRLAVAEDFAGTALMPILKKLITRFPSVKLEVQSGLSKPLYQAFQEGVVELALIKQRQGEHPAKACWPEALSWLAAADWQAVKAGEPVPLIAFPAGGLYRNEMAQLLDEAGIPWRLVYSSNSLEGVLCAVAAGMGVSLLPSRFIRAREHREITALPRATAMELALHLASSPGAELQWLADEIGAYCDRLSSGGSSVSCPNTSA	not soluble
MGSDKIHHHHHHMTIHKLKEKVASTDFEQHSYAFRRFVLDELRVYIPFAAACFTTIDPESLLSTGTVMDKQLEPIHTLILENEHTGSDYNHYFQLVDSSPHIATLHDATGGNLTASQRYTRILAPAGFHDELRAALIDQGKCWGHLTLFHSKHHSPFSREEQQLVNSLLPAITKKVKRLTFQSTFSPSPNSSHFEAAIMIFSDTFELLSANEAAHSLLSLLREQEQLGEGTFPRPIETLCVKIKATSSSKEEGEIDRWSVCIPAANGQLLTLYASKLTSELLPEQYAVISQNTSPFERLGYSLLYYGLTQREIQIVEQIVNGYTTKQISSHLYISTHTVQDHLKSIFAKMNVNSRRELLSFLNQANK	not soluble
MEIELICICCPKGCHLKVDDKSLRVEGNNCPRGAEYGVNEITNPVRTITSTVKVEKGEAVIVPVKTKEPIPKKLTMGCMEEINKAVINAPVKIGDVVIKNVLGTGIDVVATKNVSGI	soluble
MGSDKIHHHHHHMNWDNARFFLALARTGTLRGAAAQLNVDQATVGRRIAALEDELSARLFLRTPALYVLTTAGEALLEPAETMERASLTIERRVMGLDEQLAGTVRIATTDSLGKRFVIPAIARLRRRHAGIDVVCVTSTEIANLTRREADLAIRTLRPESPDLIVRRLGHLETGIYASRHYLAERGEPVAGSAFDGHDLVMYQQPVMPTMWDALCGEPTSRGRVMFQTSSTMMLVEAALAGLGIAELPCFRAEAEPELVRLMARRCNHFDVWLVAHADLYKTARVQAVIEAVVEEFATAAPSTR	not soluble
MGSDKIHHHHHHYYYARGTYTHYNLDFDQDVTHLLDLGMKQISLEPVVAQPSDPYAFQEGDLPEILKTYDRLGEELLARRRKGEDFSFFHFNVALDQGPCLPKRLSGCGAGHEYVAISPEGDLYPCHQFVGQEEFKMGSLGQEGVPLNPEIIAKFRSAHVYSKAACRQCWARFSCSGGCHSANHAFSGQLNEVYALGCEFQKKRLEVALYMKIKEA	not soluble
MAHHHHHHMASLKERDTVAPAEIVAGVTASGPAGISAEELHKVLNSSEHASVVVVDVRNADEYASFHIPGSINKPFQELNFAQLADEVAAHTNHAAHMLVFVSAQSPDVDDLAAREYINEYEKSHAATPTKDSVRVLLGGLYTWSQIYSA	soluble
MAHHHHHHMSQLAHNVNLSIFEPISHHRANRIVCTIGPSTQSVEALKGLIRSGMSVARMNFSHGSHEYHQTTINNLRAAATELGAHIGLALDTKGPEIRTGLFKDGGIALAPGDTVLVTSDPAFEKIGTKEKFYIEYPRLSITVRPGGFIYIDDGVLSLKVLSKEDEYTLKCYVNNAHFLTDRKGCNLPGCEVDLPAVSEKDREDLKFGVEQGIDMVFASFIRTAEQVQEVREALGEKGKDILIISKIENHQGVQNIDGIIEASDGIMVARGDLGVEIPAEKVVVAQMILISKCNVAGKPVICATQMLESMTTNPRPTRAEVSDVANAVFNGADCVMLSGETAKGKYPNEVVQYMARICLEAQSATNQAVMFNSIKKMQKLPMSPEEAVCSSAVNSVYEVRAKALLVLSNSGRSARLASKYRPDCPIICATTRMRTCRQLTITRSVDAVFYDAERYGEDENKEKRVQLGVDCAKKKGYVVPGDLMVVVHADHKVKGYPNQTRIIYVS	not soluble
MRNNGALGLTSKSLKNDKIMNVRTKDRGEPSTVKFSPDGRLCAMQRTPTTADVVFLEKTETSLCLELTVNTKSKEPLLAVEWVTNNQLLLVNNHSAELLYINEDKKSSKLLKATNVNAAWAIYYAPSQLLLIANGQSCSYLQPFVVTHSQFTRMKGFEVDFGGSISKENFLEKDAAIATIYGRVYVLVFKYSNRNATVLDLYELPFDAATGPSFKHSLILGFNGGCGIHVIDNLVVVHHQASQKSLIFDIRVSSPSKSHSPLVVTTIESHPQHQPPPALYTNFWFTFLPDIVIDSSGGVMYSIRLKNEHAQLEIADKQTMLEYLARRSNEKKLFVTTLLACLKARALSLRQIRKVFAMLTGVTGKSKSSFFCNGNFKLRQMANLPICRRCSISANCRFAGNFQIRQISDLAEIFIFSKFSVLPETCNSGKLIICRFAGDEEVSLPESYVANIMLQYLRSLFDAEITPEAYLIEMVVETLAEAGEMSKLQQIVTYRVINDSKPLAFLLLSYEARCSTLFQSGVDILARNKASDEIVEVMLEKKQIVDAFRFIDVRNLNDALIPKVVEAANQHCVRQTRYAIKEHLTEKKAKASLYKSIGDELYTAEEVKGASEEQATCALFEI	not soluble
MSLALLNVDKLSVHFGDESAPFRAVDRISYSVKQGEVVGIVGESGSGKSVSSLAIMGLIDYPGRVMAEKLEFNGQDLQRISEKERRNLVGAEVAMIFQDPMTSLNPCYTVGFQIMEAIKVHQGGNKSTRRQRAIDLLNQVGIPDPASRLDVYPHQLSGGMSQRVMIAMAIACRPKLLIADEPTTALDVTIQAQIIELLLELQQKENMALVLITHDLALVAEAAHKIIVMYAGQVVETGDAHAIFHAPRHPYTQALLRALPEFAQDKERLASLPGVVPGKYDRPNGCLLNPRCPYATDRCRAEEPALNMLADGRQSKCHYPLDDAGRPTEGHHHHHH	soluble
MKSSPKSLKMRDNLLDGTFVVIDLEATGFDVEKSEVIDLAAVRVEGGIITEKFSTLVYPGYFIPERIKKLTGITNAMLVGQPTIEEVLPEFLEFVGDNIVVGHFVEQDIKFINKYTKQYRGKKFRNPSLCTLKLARKVFPGLKKYSLKEIAENFGFETNGVHRALKDATLTAEIFIKILEELWFKYGIGDYYSLKRLEKGKF	soluble
MSLKKILIIVPDGGMLFESAGIADILMQANRLHPEGAREICYQVKLATTQPHQVIHGQSGLNLLADHRLHEIDPREPLDTIMITGRGQNPQEGMAVVDWLRLAAPHARRIVSICGGAMLLAQTGLLDGRRATTHWKLLETMQAEFPQIRVEGGPLYIQDEHIWTSGGVSSGFDLTLALVEEDYGEGHHHHHH	not soluble
MYLRKILELYRDSRFKYVVVDTPPTGLTLRILSLPRLYTFWLESLIGIRERIVSLRYVIARSIGREPEMDDPVLDKLREMQDRYAKLSNDLVERERTSFAIVATPEPLPVYEARKTVEFLESMGAKPSIIVVNRILPAEIASRLGVLEVQSKALNELRTRVCRKPCVLVEIPMVETVPSSLEAVLNLVERSR	not soluble
MGNQQCNWYGTLYPLCVTTTNGWGWEDQRSCIARSTCAAQPAPFGIVGSG	soluble
MGSDKIHHHHHHMENFVRNSKLNIEKEIKRIEQQPIALLERIKQIIDVIQTSLTLLKRAVAEYQFQNPEEEIQFFKVWKPQISGLLMFYIRLYQIEKNRVGKSLSAQCKYLKMELENIQKSFLNNSFYDYYRAGQTELDNQYFIRENYDILSDVHCHLLDRDSSFTTLHDSSVAMILANSHLIEYVSDEIDSLSDKLHLKFTSIVDSKLLQWTDSKVALVEFIYAIYAGKCFNNGNTSLKDIAFCCEILFNIEIGDFYRIFLEIRNRKKSRTQFLDKLKDKIQKMMEELDR	not soluble
MKIIFLLFGFIFHPNNAQFDKSGVQQTLDAHNEFRSSIAKGTYVTKGLLHAPATNIMKMKWNVTIATAAQNHANKCPKGHDGPLEGVSGECMWSGHINASKGVNHLGAVAAKAWSSEYTKKGWETDVMSDEFFNSGVGHAIIMTWYSQVNVGCGVKLCQKEGDYQLAIVVCKYWGEGQGNGKIMYESGPTCSACPPNTTCDQATGLCDSKIPDIPEPIYKYDELVNSKPAYTVVMGFFLMIIVQLI	not soluble
MGSDKIHHHHHHMRLGFYNIQGGTGKTTIAANIGYYLSDKTKTVYVDCDIYAGCGALLFGFEDSPHTLNSYLSGASALTDIIHQFDDLSVIVADSTPNSFNTEINQKRMLELIRVLNDNYDIVLLDLPPNITEGNLLFSSLNLEEKVVNKMIVVAEDSIPGIANTMKTKELLYAIDIDCIGVIVNKFKDTVDFDEALDDIIAILPYDKKVENQWMENVPAVQMKSKFSKELSYLAEDLAEVYIKKDLAAVRALKVAKELKDMTSKRQDVEEDEF	not soluble
MLIFRTSPMSRREKSLPIEPKYTKPQANGSSFPPIFTLEGSTPCKKTARKLIDPVVNSVDSLCYLARKIVKMQEEKKRQKSNSFLIDYLVGDNFITEFREQPAQASPAVDVEDPMVSLVLGCPFGAIGQERRMSQDFPFQRRSFDMVSNRTSTSESSSCSSTDNTYKNAGKFLSLQEYLEQNNLLPPSTMPFGENSGFHGYNPQMNVHNNSTRNGNVENREQRNNSTSPPRGNPPHPLCCCFCFGTASEFARLHTLPAPRKDDRGPWSDHCSKKRGRVVCPKLRSMVCGICGATGDNAHTTKHHLEAFGDD	not soluble
MAADVGQALAFLQQVKTTQGASIYEGLKAALAKVLEDRPVNAVEALETSVLSTPPAANLSVPLVPAASAAAAAAAVAKASLFGDPEPVLDPESGEPIDPDAPNEFECEDVEGDGDLLDGLGVGLGRQEMYAAMLAVKRLGEDAKRGVSTVRFFGKFFGTQADYYVFETTLQSNPDMPEAPEGTIPLEPYGEGVNAYIYFVSNTLGGPLQQLPYVTPEQIKASRLLRRYLTGRLDAPVSAFPAFPGNEANYLRALIARISAATVCCPRGFFTADDDSAELSANDEWVPLKGREMALPVNWSHRYAHLKGQGRTVTHKRDPPDEEEEPEKNFWTAEEMEAGPPPLATLDTDAPLPAATGDKVPPPAWSPVFASASVTTRNQVAGVRSNRWPGAVCACAGRHFTSMYVGWGIKAGGEWSPCPPPPPVPQWGAPAAGVEGGQQLLLECNDLPPKPAPPEEEDE	not soluble
